Laboratory results from publication PMC4359947 (The international journal of biochemistry & cell biology, 2015).
Ends that are not written are not given here.

Biological target: MAGI-1 PDZ1 domain, Cy3-labelled, tag-free (Cy3 label (approximately 1 dye/peptide))
Assay: FRET or BRET

GAIPVMIPAQSKDGSIV (also: Cy5 label (approximately 1 dye/peptide), site not given here) [CAR (CAR^Ex7) C-terminus, Cy5-labelled, tag-free]
Kd: > 500 nM
